Results as given in PMC6557989 (2019).

Tests used:
[1] = biological target: T1, C4b-binding protein (C4BP), human, purified from plasma (human, UniProt P04003 49-597; P20851 18-252, ^125I-labelled in the binding assay on bacteria); experiment: SEC; n = 26 binding sites per C4BP
T1 chain 1: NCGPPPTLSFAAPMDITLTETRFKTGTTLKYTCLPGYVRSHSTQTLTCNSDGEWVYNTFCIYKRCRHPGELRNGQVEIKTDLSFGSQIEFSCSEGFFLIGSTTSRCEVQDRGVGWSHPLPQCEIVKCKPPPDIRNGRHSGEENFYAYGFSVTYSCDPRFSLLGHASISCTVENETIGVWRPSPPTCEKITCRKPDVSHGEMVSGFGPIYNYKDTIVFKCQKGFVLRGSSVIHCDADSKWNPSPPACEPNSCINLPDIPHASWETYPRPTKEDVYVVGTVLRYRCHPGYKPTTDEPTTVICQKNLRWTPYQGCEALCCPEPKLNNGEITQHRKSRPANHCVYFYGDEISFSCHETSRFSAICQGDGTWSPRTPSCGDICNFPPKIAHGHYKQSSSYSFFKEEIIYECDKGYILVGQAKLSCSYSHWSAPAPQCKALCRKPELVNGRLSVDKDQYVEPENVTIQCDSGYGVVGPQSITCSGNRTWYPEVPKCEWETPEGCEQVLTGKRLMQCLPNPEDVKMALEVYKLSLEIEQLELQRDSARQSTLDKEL
T1 chain 2: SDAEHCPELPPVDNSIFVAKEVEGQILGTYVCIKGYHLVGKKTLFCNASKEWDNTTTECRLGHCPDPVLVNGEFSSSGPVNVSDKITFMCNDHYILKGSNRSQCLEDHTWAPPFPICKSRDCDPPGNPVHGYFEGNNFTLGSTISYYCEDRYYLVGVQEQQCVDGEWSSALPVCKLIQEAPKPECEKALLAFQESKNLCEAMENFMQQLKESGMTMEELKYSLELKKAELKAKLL

[2] = biological target: pooled human IgG (IVIG; Kiovig) (human); experiment: SEC; n = 1.1 binding sites per Protein H

B1: Protein H (natural protein)
chain: EGAKIDWQEEYKKLDEDNAKLVEVVETTSLENEKLKSENEENKKNLDKLSKENQGKLEKLELDYLKKLDHEHKEHQKEQQEQEERQKNQEQLERKYQREVEKRYQEQLQKQQQLETEKQISEASRKSLSRDLEASRAAKKDLEAEHQKLEAEHQKLKEDKQISDASRQGLSRDLEASRAAKKELEANHQKLEAEHQKLKEDKQISDASRQGLSRDLEASRAAKKELEANHQKLEAEAKALKEQLAKQAEELAKLRAGKASDSQTPDTKPGNKAVPGKGQAPQAGTKPNQNKAPMKETKRQLPST
modifications: ^125I-labelled in the plate binding assay; Alexa-488 succinimidyl ester-labelled in thermophoresis; unlabelled elsewhere
[1]
  Kd: 1300 nM
[2]
  Kd: 78 nM
